One may read the Kd as the concentration at which binding is half-saturated. Low readings indicate tighter binding, high ones weaker binding.

For test [1], the target named is JAK1 kinase domain (JH1) (Homo sapiens) (UniProt P23458). The test is described as follows: cell-based or functional assay.
Test [2] has as its target JAK1-Y1034 phosphopeptide with an alanine substitution at the +3 position (UniProt P23458). In words: ITC.
For test [3], the target named is phosphopeptide corresponding to Tyr1034 within the JAK1 kinase domain activation loop (UniProt P23458). The test is described as follows: ITC.

Regarding “hCIS-SH2-BC complex (recombinant trimeric complex of human GST-CIS-SH2 construct with Elongins B and C) (from UniProt Q9NSE2 66-258; Q15370 1-118; Q15369 17-112)”, in test [1], the efficiency of JAK1 JH1 kinase inhibition relative to SOCS1 stood at 100 fold lower and the fold selectivity of kinase inhibition, JAK1 against JAK2, JAK3 or TYK2 (JH1 domains) was > 20 fold.
Substance “human CIS lacking both the N-terminal region and the PEST motif (ΔNT/ΔPEST), trimeric complex with elongins B and C (from UniProt Q9NSE2 67-258; Q15370 1-118; Q15369 17-112)” came in with a fold reduction of binding against the wild-type JAK1-Y1034 phosphopeptide in test [2] of 4 fold.
In test [3], “human CIS lacking the N-terminal 34 residues (ΔN34), trimeric complex with elongins B and C (from UniProt Q9NSE2 35-258; Q15370 1-118; Q15369 17-112)” gave a Kd of 2.2 to 10 µM.

These data come from patent US20230192857A1.
